Results as given in article PMC1226315 (Nucleic Acids Research, 2005).

Target: human wild-type Cdk2 GST fusion protein (human, UniProt P24941 1-298)
Assay: pull-down

B1: Recombinant human wild-type DNA polymerase λ, His-tagged (enzyme)
chain: MDPRGILKAFPKRQKIHADASSKVLAKIPRREEGEEAEEWLSSLRAHVVRTGIGRARAELFEKQIVQHGGQLCPAQGPGVTHIVVDEGMDYERALRLLRLPQLPPGAQLVKSAWLSLCLQERRLVDVAGFSIFIPSRYLDHPQPSKAEQDASIPPGTHEALLQTALSPPPPPTRPVSPPQKAKEAPNTQAQPISDDEASDGEETQVSAADLEALISGHYPTSLEGDCEPSPAPAVLDKWVCAQPSSQKATNHNLHITEKLEVLAKAYSVQGDKWRALGYAKAINALKSFHKPVTSYQEACSIPGIGKRMAEKIIEILESGHLRKLDHISESVPVLELFSNIWGAGTKTAQMWYQQGFRSLEDIRSQASLTTQQAIGLKHYSDFLERMPREEATEIEQTVQKAAQAFNSGLLCVACGSYRRGKATCGDVDVLITHPDGRSHRGIFSRLLDSLRQEGFLTDDLVSQEENGQQQKYLGVCRLPGPGRRHRRLDIIVVPYSEFACALLYFTGSAHFNRSMRALAKTKGMSLSEHALSTAVVRNTHGCKVGPGRVLPTPTEKDVFRLLGLPYREPAERDW
B1: binds.
